Assay results reported in patent US20210253692A1 (GALAPAGOS, published 2021).

Target: the molecule itself
Test: dynamic light scattering in phosphate buffered saline; self-interaction of the antibody

B1: MAB#1 (antibody, human IgG1, lambda, V domains shown)
VH: EVQLLESGGGLVQPGGSLRLSCAASGFTVSDYAMHWVRQAPGKGLEWVSYIGGVGEGTQYAESVKGRFTISRDNSKNTLYLQMNSLRAEDTAVYYCARGFAIRYYGFDYWGQGTLVTVSS
VL: SYELTQPPSVSVSPGQTASITCSGDKLGDKYAYWYQQKPGQSPVLVIYQDSKRPSGIPERFSGSNSGNTATLTISGTQAEDEADYYCQVFTFPLVTTVFGGGTKLTVLG
notes: also called IL-17C antibody; anti-IL-17C antibody
  kD (diffusion interaction parameter): -23.6 mL/g
